Measured values: patent publication US20150010932A1 (SALK INSTITUTE FOR BIOLOGICAL STUDIES, published 2015)

B3: nLuc-linker-HA-Mdm4_RING (other)
chain: MEDAKNIKKGPAPFYPLEDGTAGEQLHKAMKRYALVPGTIAFTDAHIEVDITYAEYFEMSVRLAEAMKRYGLNTNHRIVVCSENSLQFFMPVLGALFIGVAVAPANDIYNERELLNSMGISQPTVVFVSKKGLQKILNVQKKLPIIQKIIIMDSKTDYQGFQSMYTFVTSHLPPGFNEYDFVPESFDRDKTIALIMNSSGSTGLPKGVALPHRTACVRFSHARDPIFGNQIIPDTAILSVVPFHHGFGMFTTLGYLICGFRVVLMYRFEEELFLRSLQDYKIQSALLVPTLFSFFAKSTLIDKYDLSNLHEIASGGAPLSKEVGEAVAKRFHLPGIRQGYGLTETTSAILITPEGDDKPGAVGKVVPFFEAKVVDLDTGKTLGVNQRGELCVRGPMIMSGYVNNPEATNALIDKDGGGGSGGGQISYASRGYPYDVPDYAGSMEDCQNLLKPCSLCEKRPRDGNIIHGRTGHLVTCFHCARRLKKAGASCPICKKEIQLVIKVFIA
notes: range 427-490; Expressed from pLi283 and pLi285; also called nLuc-Mdm4_RING; Mdm4 RING domain
B6: cLuc-linker-HA-Mdm2_RING (other)
chain: MSGYVNNPEATNALIDKDGWLHSGDIAYWDEDEHFFIVDRLKSLIKYKGYQVAPAELESILLQHPNIFDAGVAGLPDDDAGELPAAVVVLEHGKTMTEKEIVDYVASQVTTAKKLRGGVVFVDEVPKGLTGKLDARKIREILIKAKKGGKIAVGGGSGGGQISYASRGYPYDVPDYAGSSSLPLNAIEPCVICQGRPKNGCIVHGKTGHLMACFTCAKKLKKRNKPCPVCRQPIQMIVLTYFP
notes: range 428-491; Expressed from pLi283; also called cLuc-Mdm2_RING; Mdm2 RING domain

Experiments:
[1] = molecular target: T1, nLuc-linker-HA-Ube2t (UniProt Q9NPD8 1-197, limits assumed); assay: ReBiL BiLC in living U2OS cells at 35° C
T1 construct: Expressed from pLi505 and pLi506; also called nLuc-Ube2t; nLuc-Linker1-HA-Ube2t; not shown: linker-HA

[2] = molecular target: T1, nLuc-linker-HA-Ube2t; assay: ReBiL BiLC in living U2OS cells at 35° C (FIG. 23C)
[3] = molecular target: B6; assay: BiLC in cell lysate with PPI lysis buffer PLB; reference is the Mdm4_RING / Mdm2_RING_C464A pair
[4] = molecular target: TAT-PMI; assay: lysate BiLC (FIG. 13B); disruption of nLuc-p53 / cLuc-Mdm4
[5] = molecular target: T2, cLuc-linker-HA (Photinus pyralis (Common eastern …, UniProt P08659 398-547 = luciferase)); assay: quantitative ReBiL assay in U2OS cells (FIG. 17D)
T2 construct: Expressed from pLi635, no fusion partner; also called cLuc-HA; cLuc alone; not shown: linker-HA

[6] = molecular target: B3; assay: BiLC in U2OS cell lysates, three lysis buffers
[7] = molecular target: B3; assay: BiLC in cells and in cell lysate (FIGS. 16 and 12)

T1 sequence (Q9NPD8 whole entry): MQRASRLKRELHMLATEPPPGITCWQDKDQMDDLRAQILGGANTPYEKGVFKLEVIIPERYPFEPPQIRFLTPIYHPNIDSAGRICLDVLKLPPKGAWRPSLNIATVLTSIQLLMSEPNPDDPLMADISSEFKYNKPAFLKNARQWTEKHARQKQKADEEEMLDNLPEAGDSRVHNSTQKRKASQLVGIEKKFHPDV

B1: cLuc-linker-FLAG-FANCL_WT (other)
chain: MSGYVNNPEATNALIDKDGWLHSGDIAYWDEDEHFFIVDRLKSLIKYKGYQVAPAELESILLQHPNIFDAGVAGLPDDDAGELPAAVVVLEHGKTMTEKEIVDYVASQVTTAKKLRGGVVFVDEVPKGLTGKLDARKIREILIKAKKGGKIAVGGGSGGGQISYASRGDYKDDDDKSGAVTEASLLRQCPLLLPQNRSKTVYEGFISAQGRDFHLRIVLPEDLQLKNARLLCSWQLRTILSGYHRIVQQRMQHSPDLMSFMMELKMLLEVALKNRQELYALPPPPQFYSSLIEEIGTLGWDKLVYADTCFSTIKLKAEDASGREHLITLKLKAKYPAESPDYFVDFPVPFCASWTPQSSLISIYSQFLAAIESLKAFWDVMDEIDEKTWVLEPEKPPRSATARRIALGNNVSINIEVDPRHPTMLPECFFLGADHVVKPLGIKLSRNIHLWDPENSVLQNLKDVLEIDFPARAILEKSDFTMDCGICYAYQLDGTIPDQVCDNSQCGQPFHQICLYEWLRGLLTSRQSFNIIFGECPYCSKPITLKMSGRKH
notes: mature; Expressed from pLi505; also called cLuc-FANCL
B1: binds [1].

B2: cLuc-linker-FLAG-FANCL_C307A (other)
chain: MSGYVNNPEATNALIDKDGWLHSGDIAYWDEDEHFFIVDRLKSLIKYKGYQVAPAELESILLQHPNIFDAGVAGLPDDDAGELPAAVVVLEHGKTMTEKEIVDYVASQVTTAKKLRGGVVFVDEVPKGLTGKLDARKIREILIKAKKGGKIAVGGGSGGGQISYASRGDYKDDDDKSGAVTEASLLRQCPLLLPQNRSKTVYEGFISAQGRDFHLRIVLPEDLQLKNARLLCSWQLRTILSGYHRIVQQRMQHSPDLMSFMMELKMLLEVALKNRQELYALPPPPQFYSSLIEEIGTLGWDKLVYADTCFSTIKLKAEDASGREHLITLKLKAKYPAESPDYFVDFPVPFCASWTPQSSLISIYSQFLAAIESLKAFWDVMDEIDEKTWVLEPEKPPRSATARRIALGNNVSINIEVDPRHPTMLPECFFLGADHVVKPLGIKLSRNIHLWDPENSVLQNLKDVLEIDFPARAILEKSDFTMDAGICYAYQLDGTIPDQVCDNSQCGQPFHQICLYEWLRGLLTSRQSFNIIFGECPYCSKPITLKMSGRKH
notes: mature; Expressed from pLi506
B2: no binding [2].

In the case of B3, the “BiLC signal (wild type) to noise (mutant) ratio” value [3] is reported as > 1000 fold.

B4: cLuc-linker-FLAG-Mdm4-111 (other)
chain: MSGYVNNPEATNALIDKDGWLHSGDIAYWDEDEHFFIVDRLKSLIKYKGYQVAPAELESILLQHPNIFDAGVAGLPDDDAGELPAAVVVLEHGKTMTEKEIVDYVASQVTTAKKLRGGVVFVDEVPKGLTGKLDARKIREILIKAKKGGKIAVGGGSGGGQISYASRGDYKDDDDKSGTSFSTSAQCSTSDSACRISPGQINQVRPKLPLLKILHAAGAQGEMFTVKEVMHYLGQYIMVKQLYDQQEQHMVYCGGDLLGELLGRQSFSVKDPSPLYDMLRKNLVTLAT
notes: range 2-111; Expressed from pLi354 with nLuc-p53; also called cLuc-Mdm4
B4: binds [4].

B5: nLuc-linker-HA (other)
chain: MEDAKNIKKGPAPFYPLEDGTAGEQLHKAMKRYALVPGTIAFTDAHIEVDITYAEYFEMSVRLAEAMKRYGLNTNHRIVVCSENSLQFFMPVLGALFIGVAVAPANDIYNERELLNSMGISQPTVVFVSKKGLQKILNVQKKLPIIQKIIIMDSKTDYQGFQSMYTFVTSHLPPGFNEYDFVPESFDRDKTIALIMNSSGSTGLPKGVALPHRTACVRFSHARDPIFGNQIIPDTAILSVVPFHHGFGMFTTLGYLICGFRVVLMYRFEEELFLRSLQDYKIQSALLVPTLFSFFAKSTLIDKYDLSNLHEIASGGAPLSKEVGEAVAKRFHLPGIRQGYGLTETTSAILITPEGDDKPGAVGKVVPFFEAKVVDLDTGKTLGVNQRGELCVRGPMIMSGYVNNPEATNALIDKDG
notes: Expressed from pLi635, no fusion partner; also called nLuc-HA; nLuc alone; not shown: linker-HA
B5: no binding [5].

B6: binds [6].

B7: cLuc-linker-HA-Mdm2_RING-C464A (other)
chain: MSGYVNNPEATNALIDKDGWLHSGDIAYWDEDEHFFIVDRLKSLIKYKGYQVAPAELESILLQHPNIFDAGVAGLPDDDAGELPAAVVVLEHGKTMTEKEIVDYVASQVTTAKKLRGGVVFVDEVPKGLTGKLDARKIREILIKAKKGGKIAVGGGSGGGQISYASRGYPYDVPDYAGSSSLPLNAIEPCVICQGRPKNGCIVHGKTGHLMACFTAAKKLKKRNKPCPVCRQPIQMIVLTYFP
notes: range 428-491; Expressed from pLi285; also called Mdm2_C464A
B7: no binding [7].
